Results from publication PMC5414288 (2017).
No end group written: not given here. *: point of attachment. HYNIC = NNc1ccc(C(=O)*)cn1

Target: EGFR (on SKOV3 cells) (Homo sapiens, UniProt P00533)
Assay: saturation binding assay on SKOV3 cells (radioligand)

Binder: {HYNIC}-SSSYHWYGYTPQNVI (also: 99mTc-tricine labeled) [HYNIC-SSS-GE11 peptide]
- Kd: 73 nM
